Reference: the supplement of paper PMC10724198
± gives the standard deviation of the averaged measurements.

Assays:
Saccharomyces cerevisiae [1] = assay: protein stability index of tFT-peptide fusion (C-terminal peptide) (PSI (0-1 scale)); higher = more stable (slower turnover); settings: genetic background: wild type; temperature: 30 C
Saccharomyces cerevisiae [2] = assay: as above
Procedure: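 MPS profiling in S. cerevisiae of the tFT-X12 degron library: putative degron peptides plus stable controls, 12 aa, fused to the C-terminus of a sfGFP-mCherry timer. Cells are FACS-sorted into 8 mCherry/sfGFP bins and deep-sequenced. PSI runs from 0 (unstable) to 1 (stable). Backgrounds are wild type, das1Δ and doa10Δ at 30 °C, and wild type, das1Δ, cdc34-1 and cdc53-1 at 37 °C; 2-3 technical replicates each.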

[3] = genetic background: cdc34-1, temperature: 37 C
[4] = genetic background: cdc53-1, temperature: 37 C
[5] = genetic background: das1 deletion, temperature: 30 C
[6] = genetic background: das1 deletion, temperature: 37 C
[7] = genetic background: doa10 deletion, temperature: 30 C
[8] = genetic background: wild type, temperature: 30 C
[9] = genetic background: wild type, temperature: 37 C
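Note: PSI is a weighted mean of sequencing reads over stability bins, variants kept only with over 10 reads, mCherry proximal and sfGFP distal, peptide attached via GGGS linker.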

Row | Sequence | protein stability index (Saccharomyces cerevisiae [1]) | protein stability index (Saccharomyces cerevisiae [2]; [3]) | protein stability index (Saccharomyces cerevisiae [2]; [4]) | protein stability index (Saccharomyces cerevisiae [2]; [5]) | protein stability index (Saccharomyces cerevisiae [2]; [6]) | protein stability index (Saccharomyces cerevisiae [2]; [7]) | protein stability index (Saccharomyces cerevisiae [2]; [8]) | protein stability index (Saccharomyces cerevisiae [2]; [9])
1 | VFLNVLDNNRLC | 0.464 ± 0.037 | 0.65 ± 0.078 | 0.734 ± 0.011 | 0.662 ± 0.025 | 0.74 ± 0.0031 | 0.323 ± 0.011 | 0.331 ± 0.046 | 0.622 ± 0.028
2 | VFLRFVLSFFLL | 0.4516 ± 0.001 | 0.542 ± 0.03 | 0.629 ± 0.023 | 0.526 ± 0.023 | 0.608 ± 0.0045 | 0.424 ± 0.02 | 0.418 ± 0.013 | 0.489 ± 0.0065
3 | VFLSLVFFFIIT | 0.367 ± 0.026 | 0.254 ± 0.011 | 0.343 ± 0.0077 | 0.282 ± 0.035 | 0.43 ± 0.005 | 0.287 ± 0.013 | 0.275 ± 0.019 | 0.392 ± 0.021
4 | VFRVLLSLFSTL | 0.408 ± 0.0095 | 0.657 ± 0.021 | 0.7335 ± 0.0063 | 0.653 ± 0.018 | 0.738 ± 0.0053 | 0.289 ± 0.019 | 0.306 ± 0.023 | 0.4804 ± 0.0029
5 | VFRYWCGIFCLT | 0.478 ± 0.07 | 0.688 ± 0.052 | 0.701 ± 0.054 | 0.613 ± 0.025 | 0.789 ± 0.045 | 0.528 ± 0.027 | 0.547 ± 0.019 | 0.6715 ± 0.0057
6 | VFSAGFSTISLF | 0.704 ± 0.39 | 0.745 ± 0.037 | 0.792 ± 0.03 | 0.678 ± 0.049 | 0.789 ± 0.012 | 0.6674 ± 0.0061 | 0.666 ± 0.012 | 0.741 ± 0.011
7 | VFSWLAFGFFCS | 0.557 ± 0.091 | 0.647 ± 0.0029 | 0.69 ± 0.012 | 0.61 ± 0.022 | 0.6821 ± 0.0028 | 0.588 ± 0.024 | 0.601 ± 0.023 | 0.642 ± 0.033
8 | VGELYRLRKLHV | 0.313 ± 0.035 | 0.69 ± 0.026 | 0.73 ± 0.013 | 0.607 ± 0.02 | 0.728 ± 0.015 | 0.222 ± 0.02 | 0.249 ± 0.035 | 0.506 ± 0.018
9 | VGHVFLGVVWLV | 0.163 ± 0.013 | 0.44 ± 0.043 | 0.573 ± 0.014 | 0.457 ± 0.031 | 0.6 ± 0.0034 | 0.0977 ± 0.0055 | 0.101 ± 0.013 | 0.0863 ± 0.011
10 | VGLRLSVIFVVI | 0.372 ± 0.038 | 0.265 ± 0.019 | 0.2985 ± 0.0021 | 0.213 ± 0.033 | 0.428 ± 0.027 | 0.195 ± 0.0031 | 0.213 ± 0.027 | 0.391 ± 0.049
11 | VGVIGWGVLGVG | 0.5 ± 0.01 | 0.475 ± 0.04 | 0.548 ± 0.0055 | 0.481 ± 0.011 | 0.541 ± 0.011 | 0.4866 ± 0.00011 | 0.481 ± 0.013 | 0.536 ± 0.0097
12 | VGVVGVRVLVVV | 0.2026 ± 0.0015 | 0.0407 ± 0.0012 | 0.1 ± 0.018 | 0.166 ± 0.032 | 0.19025 ± 0.00017 | 0.142 ± 0.01 | 0.154 ± 0.024 | 0.17315 ± 8e-05
13 | VIGSFVRVFGIM | 0.512 ± 0.12 | 0.698 ± 0.024 | 0.751 ± 0.018 | 0.617 ± 0.017 | 0.728 ± 0.026 | 0.489 ± 0.041 | 0.506 ± 0.0097 | 0.6657 ± 0.00035
14 | VILMFELFGVRI | 0.331 ± 0.029 | 0.324 ± 0.04 | 0.457 ± 0.019 | 0.355 ± 0.058 | 0.4304 ± 0.0029 | 0.327 ± 0.019 | 0.313 ± 0.051 | 0.422 ± 0.054
15 | VLCHLVLYVGDK | 0.4359 ± 0.0017 | 0.454 ± 0.013 | 0.569 ± 0.022 | 0.383 ± 0.035 | 0.588 ± 0.013 | 0.3413 ± 0.0027 | 0.397 ± 0.052 | 0.534 ± 0.029
16 | VLDLLRHGFLWQ | 0.761 ± 0.071 | 0.686 ± 0.051 | 0.736 ± 0.0032 | 0.706 ± 0.024 | 0.727 ± 0.011 | 0.689 ± 0.017 | 0.6984 ± 0.0056 | 0.7119 ± 0.0068
17 | VLFFVLGVLVCL | 0.397 ± 0.043 | 0.319 ± 0.019 | 0.429 ± 0.019 | 0.348 ± 0.027 | 0.471 ± 0.01 | 0.319 ± 0.021 | 0.338 ± 0.019 | 0.441 ± 0.026
18 | VLFIKKTLMRIQ | 0.396 ± 0.0084 | 0.558 ± 0.008 | 0.685 ± 0.0057 | 0.621 ± 0.0064 | 0.66 ± 0.015 | 0.268 ± 0.025 | 0.331 ± 0.027 | 0.537 ± 0.045
19 | VLFVLFASWFPR | 0.487 ± 0.0066 | 0.453 ± 0.023 | 0.4772 ± 0.002 | 0.375 ± 0.027 | 0.5458 ± 0.0053 | 0.3679 ± 0.0025 | 0.361 ± 0.024 | 0.529 ± 0.047
20 | VLFVVLVASGLG | 0.299 ± 0.023 | 0.215 ± 0.015 | 0.312 ± 0.007 | 0.204 ± 0.032 | 0.4008 ± 0.00043 | 0.163 ± 0.01 | 0.206 ± 0.026 | 0.4012 ± 0.0037

Row | Sequence | protein stability index (Saccharomyces cerevisiae [1]) | protein stability index (Saccharomyces cerevisiae [2]; [3]) | protein stability index (Saccharomyces cerevisiae [2]; [4]) | protein stability index (Saccharomyces cerevisiae [2]; [5]) | protein stability index (Saccharomyces cerevisiae [2]; [6]) | protein stability index (Saccharomyces cerevisiae [2]; [7]) | protein stability index (Saccharomyces cerevisiae [2]; [8]) | protein stability index (Saccharomyces cerevisiae [2]; [9])
21 | VLPQSVWILVRV | 0.2609 ± 0.0026 | 0.0621 ± 0.016 | 0.0737 ± 0.0062 | 0.172 ± 0.024 | 0.236 ± 0.012 | 0.144 ± 0.021 | 0.155 ± 0.032 | 0.1936 ± 0.0014
22 | VLSFWAFLFLLF | 0.335 ± 0.011 | 0.428 ± 0.012 | 0.412 ± 0.026 | 0.398 ± 0.023 | 0.488 ± 0.015 | 0.31 ± 0.013 | 0.282 ± 0.0089 | 0.3785 ± 0.0022
23 | VLSWRAWGESGV | 0.445 ± 0.024 | 0.387 ± 0.02 | 0.426 ± 0.015 | 0.466 ± 0.032 | 0.392 ± 0.014 | 0.493 ± 0.03 | 0.468 ± 0.011 | 0.382 ± 0.007
24 | VMFWRGVWLSFC | 0.268 ± 0.03 | 0.313 ± 0.036 | 0.361 ± 0.049 | 0.45 ± 0.019 | 0.572 ± 0.03 | 0.23 ± 0.0033 | 0.197 ± 0.016 | 0.335 ± 0.011
25 | VNTRIVVRMRHL | 0.433 ± 0.014 | 0.638 ± 0.056 | 0.701 ± 0.015 | 0.64 ± 0.014 | 0.704 ± 0.02 | 0.339 ± 0.0049 | 0.348 ± 0.013 | 0.529 ± 0.0082
26 | VNWGFLVLLFQL | 0.324 ± 0.011 | 0.446 ± 0.017 | 0.513 ± 0.025 | 0.39 ± 0.035 | 0.561 ± 0.018 | 0.219 ± 0.029 | 0.25 ± 0.021 | 0.4111 ± 0.00064
27 | VPLHPPPTVPYI | 0.704 ± 0.03 | 0.674 ± 0.063 | 0.728 ± 0.014 | 0.66 ± 0.015 | 0.7244 ± 0.0069 | 0.679 ± 0.011 | 0.675 ± 0.034 | 0.7038 ± 0.0066
28 | VPLVQRARLRLF | 0.146 ± 0.025 | 0.639 ± 0.059 | 0.715 ± 0.02 | 0.607 ± 0.027 | 0.732 ± 0.026 | 0.109 ± 0.015 | 0.114 ± 0.012 | 0.206 ± 0.028
29 | VPRLFSVIVVPV | 0.488 ± 0.052 | 0.517 ± 0.04 | 0.5325 ± 0.0033 | 0.39 ± 0.033 | 0.5519 ± 0.0049 | 0.359 ± 0.012 | 0.389 ± 0.03 | 0.536 ± 0.018
30 | VRFRLLNVLASA | 0.468 ± 0.056 | 0.528 ± 0.0073 | 0.518 ± 0.048 | 0.395 ± 0.026 | 0.5582 ± 0.0043 | 0.34 ± 0.015 | 0.389 ± 0.021 | 0.5305 ± 0.0031
31 | VRGSFRRCLSIA | 0.1981 ± 0.0011 | 0.596 ± 0.011 | 0.713 ± 0.021 | 0.623 ± 0.015 | 0.719 ± 0.012 | 0.118 ± 0.027 | 0.142 ± 0.017 | 0.325 ± 0.011
32 | VRRSVGGWSKVG | 0.339 ± 0.022 | 0.638 ± 0.011 | 0.724 ± 0.023 | 0.636 ± 0.029 | 0.7327 ± 0.0047 | 0.158 ± 0.023 | 0.194 ± 0.037 | 0.505 ± 0.013
33 | VRSTFVLGRWFA | 0.228 ± 0.062 | 0.57 ± 0.0089 | 0.711 ± 0.0072 | 0.653 ± 0.029 | 0.7495 ± 0.0021 | 0.133 ± 0.0064 | 0.159 ± 0.018 | 0.312 ± 0.083
34 | VSFHFLLLVPCC | 0.105 ± 0.082 | 0.0285 ± 0.0095 | 0.0251 ± 0.0019 | 0.0609 ± 0.027 | 0.0732 ± 0.023 | 0.044 ± 0.0035 | 0.0565 ± 0.02 | 0.0701 ± 0.0096
35 | VSFHLGVIFALS | 0.39 ± 0.0086 | 0.547 ± 0.018 | 0.5268 ± 0.0037 | 0.401 ± 0.026 | 0.536 ± 0.0072 | 0.268 ± 0.0063 | 0.343 ± 0.021 | 0.46 ± 0.013
36 | VSFLLLSYLCSF | 0.266 ± 0.012 | 0.341 ± 0.0084 | 0.389 ± 0.01 | 0.279 ± 0.031 | 0.46 ± 0.011 | 0.172 ± 0.0023 | 0.187 ± 0.019 | 0.322 ± 0.0035
37 | VSWDMLYFWFIQ | 0.416 ± 0.002 | 0.664 ± 0.089 | 0.693 ± 0.041 | 0.603 ± 0.059 | 0.764 ± 0.033 | 0.307 ± 0.017 | 0.304 ± 0.028 | 0.554 ± 0.016
38 | VSYAVIVLVFKG | 0.329 ± 0.037 | 0.211 ± 0.056 | 0.317 ± 0.051 | 0.234 ± 0.026 | 0.463 ± 0.018 | 0.2 ± 0.022 | 0.22 ± 0.023 | 0.339 ± 0.04
39 | VTVWLISRVTGL | 0.435 ± 0.0085 | 0.579 ± 0.034 | 0.67938 ± 0.00055 | 0.496 ± 0.017 | 0.647 ± 0.017 | 0.286 ± 0.035 | 0.314 ± 0.01 | 0.549 ± 0.018
